Experimental data taken from patent US20260070986A1 (AFFIMED, published 2026).
Values belong to the binder of their own block, whether it stands above or below them.

Columns and labels:
[1] = target: T1, human CD16A (158F) on transfected CHO cells (cAg_34) (human, UniProt P08637 17-254); test: flow cytometry on huCD16A-transfected CHO cells (cAg_34), one-site fit of MFI, experiment 3
T1 construct: Exact cell-anchored construct not described; also called huCD16A
Description: (§1) After washing in FACS buffer, cells were incubated in 50 μL FACS buffer without antibodies or with titrated antibodies starting at a concentration of 100 μg/mL followed by ten 5-fold serial dilutions for 30 min on ice in the dark. After washing twice, cells were incubated with APC-conjugated goat anti-human IgG (H+L)-APC (Dianova, cat. 109-136-088) for 30 min on ice in the dark. […] After washing, binding was measured by flow cytometry and mean fluorescence intensities (MFI) of cell samples were calculated and corrected for background staining using control cells stained with secondary antibodies only.
(§2) Equilibrium dissociation constants (KD) of antibody binding were calculated by plotting MFI values and fitting a non-linear regression model for one-site binding to hyperbolic dose-response curves using GraphPad Prism.

[2] = target: T1, human CD16A (158F) on transfected CHO …; test: flow cytometry on huCD16A-transfected CHO cells (cAg_34), one-site fit of MFI, experiment 2
Description: as §1, §2

[3] = target: T1, human CD16A (158F) on transfected CHO …; test: flow cytometry on huCD16A-transfected CHO cells, anti-human IgG-APC detection
Description: To analyze binding of different antibody constructs to CHO cells transfected with human CD16A (cAg_34), relative to CD16 expression by flow cytometry, 1-2×10⁵ were resuspended in 100 μL FACS buffer (PBS (Invitrogen, cat.: 14190-169) containing 2% heat-inactivated FCS (Invitrogen, cat.: 10270-106), and 0.1% sodium azide (Roth, Karlsruhe, Germany, cat.: A1430.0100)) in round-bottom 96-well microtiter plates. After washing in FACS buffer, cells were incubated in 50 μL FACS buffer without antibodies or with titrated antibodies starting at a concentration of 100 μg/mL followed by ten 5-fold serial dilutions for 30 min on ice in the dark. After washing twice, cells were incubated with APC-conjugated goat anti-human IgG (H+L)-APC (Dianova, cat. 109-136-088) for 30 min on ice in the dark. […] After washing, binding was measured by flow cytometry and mean fluorescence intensities (MFI) of cell samples were calculated and corrected for background staining using control cells stained with secondary antibodies only.
as §2

[4] = target: T1, human CD16A (158F) on transfected CHO …; test: flow cytometry on huCD16A-transfected CHO cells (cAg_34), one-site fit of MFI, mean of 3 experiments
Description: as §1, §2

[5] = target: T1, human CD16A (158F) on transfected CHO …; test: flow cytometry on huCD16A-transfected CHO cells (cAg_34), one-site fit of MFI, experiment 1
Description: as §1, §2

[6] = target: T2, recombinant human CD16A 158V, biotinylated mFc.silenced/Avi-tagged (human, UniProt P08637 17-208, biotinylated (Avi-tag)); test: SPR (Biacore), 37 °C, multi-cycle kinetics, biotin-captured antigen as ligand, antibody construct as analyte, 1:1 binding model
T2 construct: not shown: silenced mouse Fc (mFc.silenced) and Avi-tag
Description: (§3) After each cycle, chip surfaces were regenerated with 6M guanidine-HCl, 0.25M NaOH and reloaded with Biotin Capture reagent. Interaction kinetics were determined by fitting data from multi-cycle kinetics experiments to a simple 1:1 interaction model using the local data analysis option (Rmax and RI) available within Biacore T200 Evaluation Software (v3.1). Referencing was done against a flow cell without captured ligand (Fc2-Fc1, Fc4-Fc3).
(§4) Affinity and kinetic parameters were evaluated for interaction with human CD16A and cynomolgus CD16 using a 1:1 Binding model.

[7] = target: T3, recombinant cynomolgus CD16, biotinylated mFc.silenced/Avi-tagged (cynomolgus, UniProt Q8SPW2 17-208, biotinylated (Avi-tag)); test: as above
T3 construct: not shown: silenced mouse Fc (mFc.silenced) and Avi-tag
Description: as §3, §4

[8] = target: T4, recombinant human CD16A 158F, biotinylated mFc.silenced/Avi-tagged (human, UniProt P08637 17-208, biotinylated (Avi-tag)); test: as above
T4 construct: not shown: silenced mouse Fc (mFc.silenced) and Avi-tag
Description: as §3, §4

[9] = target: T5, cynomolgus CD16 on transfected CHO cells (cAg_36) (cynomolgus, UniProt Q8SPW2 17-254); test: flow cytometry on cyCD16-transfected CHO cells (cAg_36), anti-human IgG-FITC detection
T5 construct: whole, on cells; also called cyCD16
Description: as §1, with “1000 nM” for “100 μg/mL”, “elven 3-fold” for “ten 5-fold”, “40-50” for “30”, “FITC-conjugated” for “APC-conjugated”, “(H+L) (Jackson Immunologies, cat.: 109-096-088)” for “(H+L)-APC (Dianova, cat. 109-136-088)”

[10] = target: T1, human CD16A (158F) on transfected CHO …; test: flow cytometry on huCD16A (158F) CHO cells (cAg_34), one-site fit of MFI, mean
Description: (§5) After washing twice, cells were incubated with FITC-conjugated goat anti-human IgG (H+L) (Jackson Immunologies, cat.: 109-096-088) for 40-50 min on ice in the dark. […] After washing, binding was measured by flow cytometry and mean fluorescence intensities (MFI) of cell samples were calculated and corrected for background staining using control cells stained with secondary antibodies only.
as §2

[11] = target: T1, human CD16A (158F) on transfected CHO …; test: flow cytometry on huCD16A (158F)-transfected CHO cells (cAg_34), anti-human IgG-FITC detection
Description: as §1, with “1000 nM” for “100 μg/mL”, “elven 3-fold” for “ten 5-fold”, “40-50” for “30”, “FITC-conjugated” for “APC-conjugated”, “(H+L) (Jackson Immunologies, cat.: 109-096-088)” for “(H+L)-APC (Dianova, cat. 109-136-088)”

[12] = target: T5, cynomolgus CD16 on transfected CHO …; test: flow cytometry on cyCD16 CHO cells (cAg_36), one-site fit of MFI, Exp. 1
Description: as §5, §2

[13] = target: T1, human CD16A (158F) on transfected CHO …; test: flow cytometry on huCD16A (158F) CHO cells (cAg_34), one-site fit of MFI, Exp. 2
Description: as §5, §2

[14] = target: T5, cynomolgus CD16 on transfected CHO …; test: flow cytometry on cyCD16 CHO cells (cAg_36), one-site fit of MFI, Exp. 2
Description: as §1, with “1000 nM” for “100 μg/mL”, “elven 3-fold” for “ten 5-fold”, “40-50” for “30”, “FITC-conjugated” for “APC-conjugated”, “(H+L) (Jackson Immunologies, cat.: 109-096-088)” for “(H+L)-APC (Dianova, cat. 109-136-088)”
as §2

[15] = target: T1, human CD16A (158F) on transfected CHO …; test: flow cytometry on huCD16A (158F) CHO cells (cAg_34), one-site fit of MFI, Exp. 3
Description: as §5, §2

[16] = target: T1, human CD16A (158F) on transfected CHO …; test: flow cytometry on huCD16A (158F) CHO cells (cAg_34), one-site fit of MFI, Exp. 1
Description: as §5, §2

[17] = target: T5, cynomolgus CD16 on transfected CHO …; test: flow cytometry on cyCD16 CHO cells (cAg_36), one-site fit of MFI, Exp. 3
Description: as §5, §2

[18] = target: T5, cynomolgus CD16 on transfected CHO …; test: flow cytometry on cyCD16 CHO cells (cAg_36), one-site fit of MFI, mean
Description: as §1, with “1000 nM” for “100 μg/mL”, “elven 3-fold” for “ten 5-fold”, “40-50” for “30”, “FITC-conjugated” for “APC-conjugated”, “(H+L) (Jackson Immunologies, cat.: 109-096-088)” for “(H+L)-APC (Dianova, cat. 109-136-088)”
as §2

T3 sequence (Q8SPW2 17-208): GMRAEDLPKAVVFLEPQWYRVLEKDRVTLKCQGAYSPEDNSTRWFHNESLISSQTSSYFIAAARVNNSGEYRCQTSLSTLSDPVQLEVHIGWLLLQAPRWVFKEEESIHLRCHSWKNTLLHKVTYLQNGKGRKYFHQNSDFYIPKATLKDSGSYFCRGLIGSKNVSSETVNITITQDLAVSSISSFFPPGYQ
T5 sequence (Q8SPW2 17-254): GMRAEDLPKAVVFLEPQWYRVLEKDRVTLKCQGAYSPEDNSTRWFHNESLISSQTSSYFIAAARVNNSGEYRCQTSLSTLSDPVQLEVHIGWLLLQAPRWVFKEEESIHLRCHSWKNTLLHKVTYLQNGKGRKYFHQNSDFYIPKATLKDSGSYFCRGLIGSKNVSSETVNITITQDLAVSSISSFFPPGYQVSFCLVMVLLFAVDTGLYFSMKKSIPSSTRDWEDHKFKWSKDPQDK
T2 sequence (P08637 17-208 F176V limits assumed): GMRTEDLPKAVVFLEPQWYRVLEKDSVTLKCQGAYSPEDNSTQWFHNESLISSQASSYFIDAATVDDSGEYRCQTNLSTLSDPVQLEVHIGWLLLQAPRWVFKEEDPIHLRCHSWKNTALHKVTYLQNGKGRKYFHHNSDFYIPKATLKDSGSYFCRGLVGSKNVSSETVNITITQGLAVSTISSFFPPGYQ
T1 sequence (P08637 17-254 limits assumed): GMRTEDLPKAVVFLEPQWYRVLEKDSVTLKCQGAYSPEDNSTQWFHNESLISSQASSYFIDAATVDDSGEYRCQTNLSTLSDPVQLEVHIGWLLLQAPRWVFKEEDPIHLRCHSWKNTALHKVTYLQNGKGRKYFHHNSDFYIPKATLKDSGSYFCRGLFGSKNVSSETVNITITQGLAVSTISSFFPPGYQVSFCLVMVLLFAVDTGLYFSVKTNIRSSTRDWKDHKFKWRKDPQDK
T4 sequence (P08637 17-208): as the sequence (P08637 17-208 F176V limits assumed) above, with V160F counted along it

Kd [1]: 37.9 nM
Kd [2]: 18.7 nM
EC50 (read off the curve) [3]: ~20 nM
Kd [4]: 37.6 nM
Kd [5]: 56.2 nM
Kd [6]: 0.75 nM
koff [6]: 0.00023 s⁻¹
kon [6]: 310000 M⁻¹ s⁻¹
Kd [7]: 2.48 nM
koff [7]: 0.00047 s⁻¹
kon [7]: 190000 M⁻¹ s⁻¹
Kd [8]: 1.25 nM
koff [8]: 0.00037 s⁻¹
kon [8]: 300000 M⁻¹ s⁻¹
B1: scFv-IgAb_148 (CD123-1xCD16a2) (bispecific antibody)
chain 1: QVQLQQSGAEVKKPGASVKVSCKASGYTFTDYYMKWVKQSHGKSLEWMGDIIPSNGATFYNQKFKGKATLTVDRSTSTAYMELSSLRSEDTAVYYCARSHLLRASWFAYWGQGTLVTVSSASTKGPSVFPLAPSSKSTSGGTAALGCLVKDYFPEPVTVSWNSGALTSGVHTFPAVLQSSGLYSLSSVVTVPSSSLGTQTYICNVNHKPSNTKVDKKVEPKSCDKTHTCPPCPAPEFEGGPSVFLFPPKPKDTLMISRTPEVTCVVVAVSHEDPEVKFNWYVDGVEVHNAKTKPREEQYNSTYRVVSVLTVLHQDWLNGKEYKCKVSNKALPAPIEKTISKAKGQPREPQVYTLPPSREEMTKNQVSLTCLVKGFYPSDIAVEWESNGQPENNYKTTPPVLDSDGSFFLYSKLTVDKSRWQQGNVFSCSVMHEALHNHYTQKSLSLSPGGGGGSGGGGSGGGGSGGGGSGGGGSGGGGSSYVLTQPSSVSVAPGQTATISCGGHNIGSKNVHWYQQRPGQSPVLVIYQDNKRPSGIPERFSGSNSGNTATLTISGTQAMDEADYYCQVWDNYSVLFGGGTKLTVLGGSGGSGGSGGSGGSGGSGGSQVQLVQSGAEVKKPGESLKVSCKASGYTFTSYYMHWVRQAPGQGLEWMGAIEPMYGSTSYAQKFQGRVTMTRDTSTSTVYMELSSLRSEDTAVYYCARGSAYYYDFADYWGQGTLVTVSS
chain 2: not shown
notes: also called CD123xCD16A scFv-IgAb_148; CD16a2xCD123-1

EC50 (read off the curve) [9]: ~40 nM
Kd [10]: 26.2 nM
EC50 (read off the curve) [11]: ~30 nM
Kd [12]: 38.6 nM
Kd [13]: 29.3 nM
Kd [14]: 31.7 nM
Kd [15]: 27.1 nM
Kd [16]: 22.1 nM
Kd [17]: 28.2 nM
Kd [18]: 32.8 nM
B2: scFv-IgAb_381 (Target specificity x CD16A, CD16a4) (bispecific antibody)
chain 1: EVQLVESGGGVVQPGRSLRLSCSASGFTFSGYGLSWVRQAPGKGLEWVAMISSGGSYTYYADSVKGRFAISRDNAKNTLFLQMDSLRPEDTGVYFCARHGDDPAWFAYWGQGTPVTVSSASTKGPSVFPLAPSSKSTSGGTAALGCLVKDYFPEPVTVSWNSGALTSGVHTFPAVLQSSGLYSLSSVVTVPSSSLGTQTYICNVNHKPSNTKVDKKVEPKSCDKTHTCPPCPAPEFEGGPSVFLFPPKPKDTLMISRTPEVTCVVVAVSHEDPEVKFNWYVDGVEVHNAKTKPREEQYNSTYRVVSVLTVLHQDWLNGKEYKCKVSNKALPAPIEKTISKAKGQPREPQVYTLPPSREEMTKNQVSLTCLVKGFYPSDIAVEWESNGQPENNYKTTPPVLDSDGSFFLYSKLTVDKSRWQQGNVFSCSVMHEALHNHYTQKSLSLSPGGGGGSGGGGSGGGGSGGGGSGGGGSGGGGSSYELTQPLSVSVALGQTARITCGGHNIGSKNVHWYQQKPGQAPVLVIYQDNKRPSGIPERFSGSNSGNTATLTISRAQAGDEADYYCQVWDNYNVLFGCGTKLTVLGGSGGSGGSGGSGGSGGSGGSQVQLVQSGAEVKKPGASVKVSCKASGYTFTSYYMHWVRQAPGQCLEWMGAIEPTYGSTSYAQKFQGRVTMTRDTSTSTVYMELSSLRSEDTAVYYCARGSAYYYDFADYWGQGTLVTVS
chain 2: DIQLTQSPSSLSASVGDRVTITCSVSSSISSNNLHWYQQKPGKAPKPWIYGTSNLASGVPSRFSGSGSGTDYTFTISSLQPEDIATYYCQQWSSYPYMYTFGQGTKVEIKRTVAAPSVFIFPPSDEQLKSGTASVVCLLNNFYPREAKVQWKVDNALQSGNSQESVTEQDSKDSTYSLSSTLTLSKADYEKHKVYACEVTHQGLSSPVTKSFNRGEC
